Assay: yeast display, Sf9 membrane polyspecificity reagent, FACS + sequencing; frameworks hold sequencing errors
How it was run: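 A synthetic nanobody library was expressed on Saccharomyces cerevisiae BJ5465 by galactose induction for 36–48 hours. The library was stained for 1 hour at 4 °C with 10% biotinylated, detergent-solubilized Sf9 membrane reagent and enriched with streptavidin microbeads before FACS. Low and high (top ~1%) gates were set on anti-HA fluorescence for expression and streptavidin fluorescence for reagent binding, and each polyreactivity label reflects the gate of origin.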

**Q.** For “QVQLVESGGGLVQAGGSLRLSCAASGFIFRLNAMGWYRQAPGKERELVAAISTYADSMKGRFTISRDNAKNTVYLQMNSLKPEDTAVYYCAKDYTDTYAYRTGFDYWGQGTQVTVSS”, which “polyreactivity (PSR sort gate)” value is on record?
**A.** The value was “low polyreactivity”.

**Q.** Which “polyreactivity (PSR sort gate)” value does the source give for “QVQLVESGGGLVQAGGSLRLSCAASGFIFRLYTMGGYRQAPGKERELVAAISWSGGRTYYADSVKGRFTISRDNAKNTVYLQMNSLKPEDTAVYYCAKDLYLHTYYAYPYRFGSGYYWGQGTQVTVSS” here?
**A.** The value was “low polyreactivity”.

**Q.** With “QVQLVESGGGLVQAGGSLRLSCAASGFIFRNYAMGWYRQAPGKERELVAAISRRAGSTYYADSVKGRFTISRDNAKNTVYLQMNSLKPEVTAVYYCAADSYWRYYPTKYDYWGQGTQVTVSS” as the sequence, how does the “polyreactivity (PSR sort gate)” value read?
**A.** Its value is “high polyreactivity”.

**Q.** For “QVQLVESGGGLVQAGGSLRLSCAASGFIFRQNAMGWYRQAPGKERELVAAISGSGGRTYYADSVKGRFTISRDTAKNTVYLQMNSLKPEDTAVYYCAAQYVTSRFDYWGQGTQVTVSS”, which “polyreactivity (PSR sort gate)” value is on record?
**A.** Its value is “high polyreactivity”.

**Q.** Which “polyreactivity (PSR sort gate)” value does the source give for “QVQLVESGGGLVQAGGSLRLSCAASGFIFRQYAMGWYRQAPGKEMELVAAISSSGGRTYYADSVKGRFTISRDNAKNTVYLQMNSLKPEDTAVSYCNARAWLRVEYGEGYWGQGTQVTVSS” here?
**A.** Its value is “high polyreactivity”.

**Q.** With “QVQLVESGGGLVQAGGSLRLSCAASGFIFRRNAMGWYRQAPGKEREFVAAITWSGGSTYYADSVKGRFTISRDNAKDTVYLQMNSLKPEDTAVYYCAATYSQYWYTKYLNSYPGYDYWGQGTQVTVSS” as the sequence, how does the “polyreactivity (PSR sort gate)” value read?
**A.** The value was “low polyreactivity”.

**Q.** Which “polyreactivity (PSR sort gate)” value does the source give for “QVQLVESGGGLVQAGGSLRLSCAASGFIFRRNAMGWYRQAPGKEREFVAAITWSGGSTYYADSVKGRFTISRDNAKYTVYLQMNSLKPEDTAVYYCAATYSQYWYTKYLNSYPGYDYWGQGTQVTVSS” here?
**A.** The value was “low polyreactivity”.

**Q.** With “QVQLVESGGGLVQAGGSLRLSCAASGFIFRRYAMGWSRPAPGNERELVAAITWSGGSTYYADSVKGRFTISRDNAKNTVYLQMNSLKPEDTAVYYCAAVYRQSGDYYSRDYYWGQGTQVTVSS” as the sequence, how does the “polyreactivity (PSR sort gate)” value read?
**A.** Its value is “high polyreactivity”.

**Q.** For “QVQLVESGGGLVQAGGSLRLSCAASGFIFRSNAMGWYRQAPGKEREFVAAISSRGGSTTYADSVKGRFTISRDNAKNTVYLQMNSLKPEDTAVYYCARSLRRFVVAYDYWGQGTQVTVSS”, which “polyreactivity (PSR sort gate)” value is on record?
**A.** The value was “high polyreactivity”.

**Q.** Which “polyreactivity (PSR sort gate)” value does the source give for “QVQLVESGGGLVQAGGSLRLSCAASGFIFRSYDMGWYRQAPGKERELVARISSGGSTYYADSVKGRFTISRDNAKNTVYLQMNSLKPEDTAVYYCNSARPTAAYDYWGQGTQVTVSS” here?
**A.** The value was “low polyreactivity”.

**Q.** With “QVQLVESGGGLVQAGGSLRLSCAASGFIFRTNAMGWYRQAPGKERELVAAISRSGNTYYADSVKGRFTISRDNAKNTVYLQMNSLKPEDTAVYYCNAGWYGAYRWYRSDYWGQGTQVTVSS” as the sequence, how does the “polyreactivity (PSR sort gate)” value read?
**A.** Its value is “high polyreactivity”.

**Q.** Which “polyreactivity (PSR sort gate)” value does the source give for “QVQLVESGGGLVQAGGSLRLSCAASGFIFRTYAMGWYRQAPGKERELDATITGDGSTNYADSVKGRFTISRDNAKKTVYLQMNSLKPEDTAVYYGSRDVRLSGDYWGQGTQVTVSS” here?
**A.** Its value is “low polyreactivity”.

**Q.** For “QVQLVESGGGLVQAGGSLRLSCAASGFIFRVYAMGWYRQAPGKERELVAAITRAGNTYYADSVKGRFTISRDNAKNTVYLQMNSLKPEDTAVYYCNNYHYWASPMNYWGQGTQVTVSS”, which “polyreactivity (PSR sort gate)” value is on record?
**A.** Its value is “high polyreactivity”.

**Q.** With “QVQLVESGGGLVQAGGSLRLSCAASGFIFRVYAMGWYRQAPGKERELVATITYDGGRTYYADSVKGRFTISRDNAKNTVYLQMNSLKPEDTAVFGYWGQGTQVTVSS” as the sequence, how does the “polyreactivity (PSR sort gate)” value read?
**A.** Its value is “low polyreactivity”.

**Q.** For “QVQLVESGGGLVQAGGSLRLSCAASGFIFRWYAMGGYRPAPGKERELVASITRCGSTYYADSVKGRFTISRDNAKNTVYLQMNSLKPEDTAVYYCAVDYLSPKYDYWGHGTQVTVSS”, which “polyreactivity (PSR sort gate)” value is on record?
**A.** The value was “high polyreactivity”.

**Q.** For “QVQLVESGGGLVQAGGSLRLSCAASGFIFRWYAMGWSRQAPGKERELVAAISRGGSTNYADSVKGRFTISRDNAKNTVYLQMISLKPEDTAVYYCNARYVSYSGRYVIGQYVKYDYWGQGTQVTVSS”, which “polyreactivity (PSR sort gate)” value is on record?
**A.** The value was “high polyreactivity”.

**Q.** With “QVQLVESGGGLVQAGGSLRLSCAASGFIFRWYAMGWSRQAPGKERELVAAISSGGSTYYADSVKGRFTISRDNAKNTVYLQMNSLKPEDTAVYYCAVRRYSEGDYWGQGTQVTVSS” as the sequence, how does the “polyreactivity (PSR sort gate)” value read?
**A.** Its value is “high polyreactivity”.

**Q.** With “QVQLVESGGGLVQAGGSLRLSCAASGFIFRWYAMGWYRPAPGKERELVASINWSGSRTNYADSVKGRFTISRDNAKNTVYLQMNSLKPEDTAVYYCNAYGGLQYDYWGQGTQVTVSS” as the sequence, how does the “polyreactivity (PSR sort gate)” value read?
**A.** The value was “high polyreactivity”.

**Q.** Which “polyreactivity (PSR sort gate)” value does the source give for “QVQLVESGGGLVQAGGSLRLSCAASGFIFRWYAMGWYRQAPGKERELVASINWSGSRTNYADSVKGRFTISRDNAKYTVYLQMNSLKPEDTAVYYCNAYGGLQYDYWGQGTQVSVSS” here?
**A.** The value was “high polyreactivity”.

**Q.** Which “polyreactivity (PSR sort gate)” value does the source give for “QVQLVESGGGLVQAGGSLRLSCAASGFIFRWYAMGWYRQAPWKERELVASINTDGDSTYYADSVKGRFTISRDNAKNTVYLQMNSLKPEDTAVYYCAADYVGYWWYTSDNYDYWGQGTQVTVSS” here?
**A.** Its value is “high polyreactivity”.

**Q.** Which “polyreactivity (PSR sort gate)” value does the source give for “QVQLVESGGGLVQAGGSLRLSCAASGFIFRWYTLGWYRQAPGKERELVAAISRSGGSTYYADSVKGRFTISRDNAKNTVYLQMNSLKPEDTAVYYCNAYDHPIYRLDYWGQGTQVTVSS” here?
**A.** Its value is “high polyreactivity”.

**Q.** Which “polyreactivity (PSR sort gate)” value does the source give for “QVQLVESGGGLVQAGGSLRLSCAASGFIFRYNAMGWYIQAPGKERELVASIDWSGGSTYYADSVKGGFTISRDNAKITVYLQMNSLKPEDTEVYYCAADTSYWYDYYIDYVGYYYWGQGTQVTVSS” here?
**A.** Its value is “high polyreactivity”.

**Q.** For “QVQLVESGGGLVQAGGSLRLSCAASGFIFRYNAMGWYRQAPGKEREFVAAISQGGASTYYADSVKGRFTISRDNAKNTVYLQMNSLKPEDTAVYYCAREPSIFTPSYDYWGQGTQVTVSS”, which “polyreactivity (PSR sort gate)” value is on record?
**A.** The value was “low polyreactivity”.

**Q.** For “QVQLVESGGGLVQAGGSLRLSCAASGFIFRYNAMGWYRQAPGKEREFVAAISWGGGRTYYADSVKGRFTISRDNAKNTVYLQMNSLKPEDTAVYYCAAVSPHNRYGYKYDYWGQGTQVTVSS”, which “polyreactivity (PSR sort gate)” value is on record?
**A.** Its value is “high polyreactivity”.

**Q.** Which “polyreactivity (PSR sort gate)” value does the source give for “QVQLVESGGGLVQAGGSLRLSCAASGFIFRYNTMGWYRQAPGKERELVAAISVSGARTYYADSVKGRFTISRDNAKNTVYLQMNSLKPEDTAVYYCNRRYPFYSRYNNDYWGQGTQVTVSS” here?
**A.** The value was “high polyreactivity”.

**Q.** Which “polyreactivity (PSR sort gate)” value does the source give for “QVQLVESGGGLVQAGGSLRLSCAASGFIFRYYALGWYRQAPGKERELVAAIDYSGGSTNYADSVKGRFTISRDNAKNTVYLQMNSLKPEDTGVYYCATVSDNRYYYWGQGTQVTVSS” here?
**A.** Its value is “low polyreactivity”.

**Q.** With “QVQLVESGGGLVQAGGSLRLSCAASGFIFRYYAMGWYRHAPGKERELVAAISSGGRTSYADSVKGRFTISRDNAKNTVYLQMNSLKPEDTAVYYCAADSWRGLFYYGNDYWGQGTQVTVSS” as the sequence, how does the “polyreactivity (PSR sort gate)” value read?
**A.** The value was “high polyreactivity”.

**Q.** For “QVQLVESGGGLVQAGGSLRLSCAASGFIFRYYAMGWYRQAPGKERELVAAIDYSGGSTNYADSVKGRFTISRDNAKNTVYLQMNSLKPEDTAVYYYDYWGQGTQVTVSS”, which “polyreactivity (PSR sort gate)” value is on record?
**A.** The value was “low polyreactivity”.

**Q.** Which “polyreactivity (PSR sort gate)” value does the source give for “QVQLVESGGGLVQAGGSLRLSCAASGFIFRYYAMGWYRQAPGKERELVAAISSGGGTYYADSVKGRFTISRDNAKNTVYLQMNSLKPEDTAVYYCNKASTSYYRFNYWGQGTQVTVSS” here?
**A.** Its value is “high polyreactivity”.

**Q.** For “QVQLVESGGGLVQAGGSLRLSCAASGFIFRYYAMGWYRQAPGKERELVAAISWSGGSTYYADSVKGRFTISRDNAMNTVYLQMNSLKPEDTAVYYCAADRYAILFYAEDYWGQGTQVTVSS”, which “polyreactivity (PSR sort gate)” value is on record?
**A.** The value was “low polyreactivity”.

**Q.** With “QVQLVESGGGLVQAGGSLRLSCAASGFIFRYYAMGWYRQAPGKERELVAAISWSGGTTYYADSVKGRFTISRDNAKNTVYLQMNSLKPEDTAVYYCAARVARISVPYDYWGQGTEVTVSS” as the sequence, how does the “polyreactivity (PSR sort gate)” value read?
**A.** Its value is “low polyreactivity”.

**Q.** For “QVQLVESGGGLVQAGGSLRLSCAASGFIFRYYAMGWYRQAPGKERELVAAITSGGASTYYADSVKGRFTISRDNAKNTVYLQMNSLKPEDTAVYYCAADTSSYSEYDYWGQGTQVTVSS”, which “polyreactivity (PSR sort gate)” value is on record?
**A.** Its value is “low polyreactivity”.
